Starred links: 1 amine or outer side, 2 acyl side, 3 side chain; linkers in the order of their positions; H or OH if unused. Non-standard residues stand in square brackets, D forms with d. Groups on a side chain read outwards from the residue. No end group written: not given here. *: point of attachment. C20 diacid = O=C(O)CCCCCCCCCCCCCCCCCCC(=O)*; γGlu = O=C(O)[C@H](CCC(=O)[*:2])N[*:1]; εLys = N[C@@H](CCCCN[*:1])C(=O)[*:2]; AEEA = NCCOCCOCC(=O)O; Aib = CC(C)(N)C(=O)O
Key:
Test in all cases: cell-based or functional assay
[1] = target: T1, NPY2 receptor (human (printed as hNPY2R), UniProt P49146 1-381)
T1 sequence (looked up): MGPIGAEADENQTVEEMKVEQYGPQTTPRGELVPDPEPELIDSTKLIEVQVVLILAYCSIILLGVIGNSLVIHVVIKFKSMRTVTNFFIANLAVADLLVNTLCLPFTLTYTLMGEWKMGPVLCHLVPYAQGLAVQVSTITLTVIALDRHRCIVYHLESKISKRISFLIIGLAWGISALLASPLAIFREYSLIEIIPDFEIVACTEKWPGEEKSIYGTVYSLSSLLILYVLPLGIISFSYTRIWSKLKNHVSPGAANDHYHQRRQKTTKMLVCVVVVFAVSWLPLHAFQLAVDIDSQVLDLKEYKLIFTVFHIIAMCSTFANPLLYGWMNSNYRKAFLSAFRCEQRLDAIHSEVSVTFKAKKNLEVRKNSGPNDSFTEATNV

[2] = target: T2, GIP receptor (human (printed as hGIPR), UniProt P48546 22-466)
T2 sequence (looked up): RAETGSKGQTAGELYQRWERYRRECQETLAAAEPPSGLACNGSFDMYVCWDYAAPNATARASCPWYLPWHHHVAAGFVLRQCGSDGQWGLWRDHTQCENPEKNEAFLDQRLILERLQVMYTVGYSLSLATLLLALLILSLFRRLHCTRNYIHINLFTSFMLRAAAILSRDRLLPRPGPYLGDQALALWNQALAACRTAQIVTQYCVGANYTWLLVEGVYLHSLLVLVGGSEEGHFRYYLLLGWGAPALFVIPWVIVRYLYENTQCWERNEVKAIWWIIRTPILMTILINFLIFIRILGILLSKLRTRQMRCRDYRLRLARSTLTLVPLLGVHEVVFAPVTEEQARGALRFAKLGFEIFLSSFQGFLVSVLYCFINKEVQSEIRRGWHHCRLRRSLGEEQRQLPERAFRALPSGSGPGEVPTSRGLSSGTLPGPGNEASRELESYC

[3] = target: GLP-1 receptor (human (printed as hGLP1R), UniProt P43220 24-463)

B1: Compound 215 (peptide)
peptide: YXEGTFTSDYSIXLEKQAQXEFVEWLIKGGPSSGASLRHYYNWLTRQRY
modifications: Aib at 2, 13, 20; K28 side chain carries C20DA-gGlu-gGlu-gGlu-gGlu-gGlu-gGlu-eLys; C-terminal amide
- EC50 hNPY2R 0.5% hP (CreLuc) [1]: 12.4 nM
- EC50 hNPY2R 100% hP (CreLuc) [1]: 22.5 nM
- EC50 hGIPR 0.5% hP (CreLuc) [2]: 0.5 nM
- EC50 hGIPR 100% hP (CreLuc) [2]: 2.94 nM
- EC50 hGLP1R 0.5% hP (CreLuc) [3]: 0.66 nM
- EC50 hGLP1R 100% hP (CreLuc) [3]: 14 nM

B2: Compound 216 (peptide)
peptide: YXEGTFTSDYSIXLEKQAQRAFVEWLIKGGPSSGASLRHYYNWLTRQRY
modifications: Aib at 2, 13; D-Arg at 20; K28 side chain carries C20DA-gGlu-gGlu-gGlu-gGlu-gGlu-gGlu-eLys; C-terminal amide
- EC50 hNPY2R 0.5% hP (CreLuc) [1]: 2.81 nM
- EC50 hNPY2R 100% hP (CreLuc) [1]: 16.8 nM
- EC50 hGIPR 0.5% hP (CreLuc) [2]: 9.45 nM
- EC50 hGIPR 100% hP (CreLuc) [2]: 64.2 nM
- EC50 hGLP1R 0.5% hP (CreLuc) [3]: 0.31 nM
- EC50 hGLP1R 100% hP (CreLuc) [3]: 10.6 nM

B3: Compound 217 (peptide)
peptide: YXEGTFTSDYSIXLEKQAQXAFVEWLIKGGPSEYVSLRHYYNWLTRQRY
modifications: Aib at 2, 13, 20; K28 side chain carries C20DA-gGlu-gGlu-gGlu-gGlu-gGlu-gGlu-eLys; C-terminal amide
- EC50 hNPY2R 0.5% hP (CreLuc) [1]: 18.6 nM
- EC50 hNPY2R 100% hP (CreLuc) [1]: 35.4 nM
- EC50 hGIPR 0.5% hP (CreLuc) [2]: 0.74 nM
- EC50 hGIPR 100% hP (CreLuc) [2]: 8.85 nM
- EC50 hGLP1R 0.5% hP (CreLuc) [3]: 1.34 nM
- EC50 hGLP1R 100% hP (CreLuc) [3]: 17.2 nM

B4: Compound 218 (peptide)
peptide: YXEGTFTSDYSIXLEKQAQXAFVEWLIKGGPSSGASLRHYYNXLTRQRY
modifications: Aib at 2, 13, 20, 43; K28 side chain carries C20DA-gGlu-gGlu-gGlu-gGlu-gGlu-gGlu-eLys; C-terminal amide
- EC50 hNPY2R 0.5% hP (CreLuc) [1]: 87.4 nM
- EC50 hNPY2R 100% hP (CreLuc) [1]: 623 nM
- EC50 hGIPR 0.5% hP (CreLuc) [2]: 0.36 nM
- EC50 hGIPR 100% hP (CreLuc) [2]: 2.35 nM
- EC50 hGLP1R 0.5% hP (CreLuc) [3]: 0.16 nM
- EC50 hGLP1R 100% hP (CreLuc) [3]: 3.3 nM

Binder: Y[Aib]EGTFTSDYSI[Aib]LEKQAE[Aib]AFVQWLIK([AEEA-AEEA-γGlu-γGlu-γGlu-γGlu-C20 diacid])GGPSEGASLRHYYNWLTRQRY-NH2 (also: TFA salt) [Compound 219]
- EC50 hNPY2R 0.5% hP (CreLuc) [1]: 12.8 nM
- EC50 hNPY2R 100% hP (CreLuc) [1]: 43.4 nM
- EC50 hGIPR 0.5% hP (CreLuc) [2]: 0.46 nM
- EC50 hGIPR 100% hP (CreLuc) [2]: 2.43 nM
- EC50 hGLP1R 0.5% hP (CreLuc) [3]: 0.61 nM
- EC50 hGLP1R 100% hP (CreLuc) [3]: 16.1 nM

B5: Compound 220 (peptide)
peptide: YXEGTFTSDYSIXLEKQAQXAFVQWLIKGGPSEGASLRHYYNWLTRQRY
modifications: Aib at 2, 13, 20; K28 side chain carries C20DA-gGlu-gGlu-gGlu-gGlu-gGlu-gGlu-eLys; C-terminal amide
- EC50 hNPY2R 0.5% hP (CreLuc) [1]: 10.2 nM
- EC50 hNPY2R 100% hP (CreLuc) [1]: 42.6 nM
- EC50 hGIPR 0.5% hP (CreLuc) [2]: 0.29 nM
- EC50 hGIPR 100% hP (CreLuc) [2]: 1.83 nM
- EC50 hGLP1R 0.5% hP (CreLuc) [3]: 0.17 nM
- EC50 hGLP1R 100% hP (CreLuc) [3]: 5.28 nM

B6: Compound 221 (peptide)
peptide: YXEGTFTSDYSIXLEKQAQXAFVEWLIKGGPSSGASLRHYYNWLTRQRY
modifications: Aib at 2, 13, 20; K28 side chain carries C20DA-gGlu-gGlu-gGlu-gGlu-gGlu-gGlu-eLys; C-terminal amide
- EC50 hNPY2R 0.5% hP (CreLuc) [1]: 12.4 nM
- EC50 hNPY2R 100% hP (CreLuc) [1]: 49.3 nM
- EC50 hGIPR 0.5% hP (CreLuc) [2]: 0.14 nM
- EC50 hGIPR 100% hP (CreLuc) [2]: 0.92 nM
- EC50 hGLP1R 0.5% hP (CreLuc) [3]: 0.11 nM
- EC50 hGLP1R 100% hP (CreLuc) [3]: 2.23 nM

B7: Compound 222 (peptide)
peptide: YXEGTFTSDYSIXLEKQAQXAFVEWLIKGGPSEGASLRHYYNWLTRQRY
modifications: Aib at 2, 13, 20; NMeQ (N-methyl-L-glutamine) at 47; K28 side chain carries C20DA-gGlu-gGlu-gGlu-gGlu-gGlu-gGlu-eLys; C-terminal amide
- EC50 hNPY2R 0.5% hP (CreLuc) [1]: 13.3 nM
- EC50 hNPY2R 100% hP (CreLuc) [1]: 41.6 nM
- EC50 hGIPR 0.5% hP (CreLuc) [2]: 0.19 nM
- EC50 hGIPR 100% hP (CreLuc) [2]: 1.85 nM
- EC50 hGLP1R 0.5% hP (CreLuc) [3]: 0.24 nM
- EC50 hGLP1R 100% hP (CreLuc) [3]: 4.43 nM

Binder: Y[Aib]EGTFTSDYSI[Aib]LEKQAQ[Aib]AFVQWLIK([γGlu-γGlu-γGlu-γGlu-γGlu-γGlu-C20 diacid])GGPSEGASLRHYYNWLTRQRY-NH2 (also: TFA salt) [Compound 223]
- EC50 hNPY2R 0.5% hP (CreLuc) [1]: 13.2 nM
- EC50 hNPY2R 100% hP (CreLuc) [1]: 57.5 nM
- EC50 hGIPR 0.5% hP (CreLuc) [2]: 0.39 nM
- EC50 hGIPR 100% hP (CreLuc) [2]: 3.16 nM
- EC50 hGLP1R 0.5% hP (CreLuc) [3]: 0.18 nM
- EC50 hGLP1R 100% hP (CreLuc) [3]: 4.39 nM

Binder: Y[Aib]EGTFTSDYSI[Aib]LEKQAQ[Aib]AFVQWLIK([εLys-γGlu-γGlu-γGlu-γGlu-γGlu-γGlu-γGlu-C20 diacid])GGPSEGASLRHYYNWLTRQRY-NH2 (also: TFA salt) [Compound 224]
- EC50 hNPY2R 0.5% hP (CreLuc) [1]: 10.6 nM
- EC50 hNPY2R 100% hP (CreLuc) [1]: 31.6 nM
- EC50 hGIPR 0.5% hP (CreLuc) [2]: 0.43 nM
- EC50 hGIPR 100% hP (CreLuc) [2]: 1.35 nM
- EC50 hGLP1R 0.5% hP (CreLuc) [3]: 0.13 nM
- EC50 hGLP1R 100% hP (CreLuc) [3]: 3.24 nM

Source: patent US20240247080A1, “GLP1/GIP/NPY2 RECEPTOR TRIPLE AGONISTS” (Boehringer Ingelheim International GmbH, priority 2022, published 2024)
